Measured values taken from the supplement of paper PMC10567573.

B1: PCDHGA10 (parent)
chain: FHELQMQVTASDSGDPPLSSNVSL

Variants of: B1
Test: protein stability index of a GFP-peptide fusion (GPS, HEK-293T) (PSI 1-6); higher = more stable
Conditions: c terminus: a fixed tail appended
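Further: lentivirally expressed fusions sorted by FACS into six bins by GFP to DsRed ratio, PSI derived from sequencing read proportions per bin multiplied by bin number.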

Protein stability index: each site, then its substitutions
S11: K 2.9, V 1.93, N 2.03, G 2.13, P 2.21, Y 1.47, H 2.16, M 1.78, E 2.82, L 2.27, Q 2.72, C 2.12, R 1.96, F 1.55, T 2.4, I 1.88, D 2.3, A 2.22, W 2.59
P16: C 1.85, W 1.69, D 2.49, L 1.57, E 2.54, F 1.6, M 2.14, V 2.21, A 1.74, K 2.36, I 1.7, R 2.19, T 1.99, Y 1.59, H 2.1, N 2.23, S 2.04, G 2.33, Q 2.08
P17: Y 1.52, R 1.79, W 1.48, N 2.12, A 2.29, V 1.78, H 1.85, Q 1.93, D 2.28, S 2.13, I 2.65, C 1.56, K 2.43, L 1.16, E 2.28, T 1.93, F 1.97, M 2.38, G 2.14
N21: P 2.5, A 2.25, R 1.91, C 2.09, W 1.55, H 2.06, G 2.24, E 2.61, S 2.1, I 1.79, L 2.34, Q 2.05, V 1.58, Y 1.64, D 2.5, T 2.09, F 1.54, M 1.75, K 2.08
D15: W 3.09, I 1.93, Y 1.42, M 1.91, L 1.64, H 1.88, K 1.85, E 1.98, N 2.48, A 2.08, T 1.8, R 2.18, C 1.79, F 1.4, P 1.95, S 1.67, G 1.97, V 1.92, Q 2.04
S19: M 2.36, F 2.07, D 3.07, N 2.39, R 2.02, G 2, V 1.57, Y 1.94, Q 2.36, T 2.02, P 2.2, K 2.11, L 1.85, A 2.17, I 1.66, H 1.81, W 2.45, E 3.04, C 1.93
L18: I 2.33, C 2.39, N 2.34, Q 3, D 3.51, K 2.31, R 2.42, H 3.04, E 2.53, P 3.02, S 3.29, A 2.5, G 3.05, T 2.74, V 2.43, W 2.3, Y 2.15, F 2.56, M 2.31
S20: L 2.69, V 3.46, F 2.69, K 1.85, D 3.06, C 1.62, I 2.85, N 2.47, Q 1.98, H 2.05, T 2, E 2.75, Y 1.83, A 1.82, W 3.19, R 1.42, P 2.54, G 1.91, M 2.2
V8: Q 3.51, N 3.72, E 3.94, A 3.11, S 3.07, P 3.33, H 2.7, F 1.95, D 4.05, W 1.25, I 2.29, M 2.28, G 3.3, C 2.56, K 3.06, R 3.2, L 2.15, T 2.81, Y 2.01
A10: G 2.24, E 2.7, R 1.48, V 1.26, W 1.86, T 2.13, Q 2.44, S 2.35, C 1.74, P 2.88, Y 2.02, I 2.38, N 1.99, D 2.62, H 2.51, M 1.49, L 1.29, K 2.41, F 1.97
V22: D 3.4, H 3.13, G 2.72, A 2.52, E 3.24, C 2.38, I 1.85, K 2.84, F 1.8
D12: L 1.73, F 2.47, W 1.81, Y 2.54, H 1.88, S 2.15, K 2.35, G 2.14, V 1.73, M 3, Q 1.89, P 1.89, T 1.86, E 2.23, R 1.82, N 2.92, C 1.98, I 2.07, A 1.46
G14: M 2.09, W 2.11, F 1.82, E 2.98, R 2.21, A 2.33, K 2.31, P 3.16, L 2.11, Q 1.62, H 2.54, N 2.27, S 2.34, Y 1.94, V 2.59, I 2.12, D 2.6, T 2.31, C 2.44
T9: W 2.95, N 2.83, I 2.09, M 2.18, E 3.53, P 3.32, C 1.93, S 2.16, V 2.12, Q 2.73, D 2.65, F 2.63, G 2.86, L 1.99, R 2.88, Y 1.86, K 2.65, A 2.55, H 2.43
M6: Q 3.54, S 3.29, C 2.47, F 1.4, R 3, V 2.56, T 3.32, N 3.46, W 2.02, H 2.98, I 1.65, K 2.52, L 2.58, Y 2.46, G 3.07, D 3.81, P 3.87, E 3.77, A 2.84
S13: G 2.33, F 1.52, W 1.6, N 2.43, A 1.82, C 2.43, I 1.66, K 2.01, P 1.71, H 2.1, M 2.08, T 1.75, D 2.53, L 2.13, Y 1.88, E 2.69, Q 2.15, V 1.67, R 2.12
L4: W 2.2, Y 2.04
Q5: M 1.91, Y 1.87, G 2.73, P 2.23, L 1.4, V 2.04, S 2.11, E 3.23, C 1.88, F 3.27, A 2.26, K 2.13, T 2.16, R 2.42, D 3.32, I 1.82, W 3.59, N 2.86, H 2.44
Q7: W 2.57, L 1.89, S 1.74, D 3.06, I 2.62, R 1.99, E 2.54, N 2, P 1.71, G 2.78, Y 2.69, H 2.09, A 2.04, F 2.66, T 2.33, V 1.82, K 1.67, M 1.7, C 1.6
